B1: Ras-related protein Rab-5C (Homo sapiens), P51148 (parent)
chain: MAGRGGAARPNGPAAGNKICQFKLVLLGESAVGKSSLVLRFVKGQFHEYQESTIGAAFLTQTVCLDDTTVKFEIWDTAGQERYHSLAPMYYRGAQAAIVVYDITNTDTFARAKNWVKELQRQASPNIVIALAGNKADLASKRAVEFQEAQAYADDNSLLFMETSAKTAMNVNEIFMAIAKKLPKNEPQNATGAPGRNRGVDLQENNPASRSQCCSN
B2: Ras-related protein Rab-5C (Homo sapiens), P51148 (parent)
chain: B1 chain
partner: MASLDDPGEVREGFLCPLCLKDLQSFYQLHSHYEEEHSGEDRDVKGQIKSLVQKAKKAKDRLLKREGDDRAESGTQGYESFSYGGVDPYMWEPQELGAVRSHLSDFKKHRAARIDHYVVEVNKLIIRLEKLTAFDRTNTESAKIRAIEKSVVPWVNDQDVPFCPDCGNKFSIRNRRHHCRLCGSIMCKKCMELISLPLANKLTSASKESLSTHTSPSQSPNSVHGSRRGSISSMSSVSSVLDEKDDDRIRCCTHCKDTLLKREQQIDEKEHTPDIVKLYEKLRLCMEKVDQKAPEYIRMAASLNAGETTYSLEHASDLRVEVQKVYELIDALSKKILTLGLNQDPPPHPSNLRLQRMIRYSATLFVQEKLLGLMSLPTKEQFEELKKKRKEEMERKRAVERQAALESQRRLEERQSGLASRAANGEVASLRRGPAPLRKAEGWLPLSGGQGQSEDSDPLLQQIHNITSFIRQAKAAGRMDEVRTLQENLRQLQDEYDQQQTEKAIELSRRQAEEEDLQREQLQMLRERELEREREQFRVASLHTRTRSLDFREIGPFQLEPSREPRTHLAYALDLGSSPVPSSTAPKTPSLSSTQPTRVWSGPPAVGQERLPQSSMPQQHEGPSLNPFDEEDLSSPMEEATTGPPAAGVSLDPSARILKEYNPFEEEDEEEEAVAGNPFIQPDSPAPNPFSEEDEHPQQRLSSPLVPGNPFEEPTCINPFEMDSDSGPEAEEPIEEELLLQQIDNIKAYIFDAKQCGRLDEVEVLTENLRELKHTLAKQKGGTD
B3: Ras-related protein Rab-5C (Homo sapiens), P51148 (parent)
chain: B1 chain
partner: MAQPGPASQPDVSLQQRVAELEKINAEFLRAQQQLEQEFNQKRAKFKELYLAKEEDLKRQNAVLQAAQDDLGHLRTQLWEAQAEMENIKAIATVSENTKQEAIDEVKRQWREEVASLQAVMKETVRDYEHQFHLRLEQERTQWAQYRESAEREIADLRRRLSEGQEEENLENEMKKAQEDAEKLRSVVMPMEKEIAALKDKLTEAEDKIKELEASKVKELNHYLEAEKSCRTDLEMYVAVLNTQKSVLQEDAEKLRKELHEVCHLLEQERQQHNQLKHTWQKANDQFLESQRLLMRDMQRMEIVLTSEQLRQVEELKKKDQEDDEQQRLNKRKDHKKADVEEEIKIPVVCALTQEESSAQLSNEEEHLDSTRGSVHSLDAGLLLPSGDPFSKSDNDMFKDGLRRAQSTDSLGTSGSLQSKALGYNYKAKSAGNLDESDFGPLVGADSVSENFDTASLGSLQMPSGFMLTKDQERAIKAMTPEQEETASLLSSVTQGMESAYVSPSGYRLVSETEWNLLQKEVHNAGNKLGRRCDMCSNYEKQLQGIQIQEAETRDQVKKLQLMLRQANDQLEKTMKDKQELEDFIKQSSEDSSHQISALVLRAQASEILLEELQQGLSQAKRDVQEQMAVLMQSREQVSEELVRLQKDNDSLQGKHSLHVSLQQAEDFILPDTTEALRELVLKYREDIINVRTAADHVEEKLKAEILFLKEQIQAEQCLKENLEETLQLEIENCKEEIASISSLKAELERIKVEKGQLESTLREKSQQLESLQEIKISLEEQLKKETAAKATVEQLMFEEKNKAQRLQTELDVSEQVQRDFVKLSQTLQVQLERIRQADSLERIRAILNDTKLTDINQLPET

Variants of: B1
Settings: with eea1_human EEA1, Q15075
Chain of eea1_human EEA1, Q15075 (Q15075 whole entry): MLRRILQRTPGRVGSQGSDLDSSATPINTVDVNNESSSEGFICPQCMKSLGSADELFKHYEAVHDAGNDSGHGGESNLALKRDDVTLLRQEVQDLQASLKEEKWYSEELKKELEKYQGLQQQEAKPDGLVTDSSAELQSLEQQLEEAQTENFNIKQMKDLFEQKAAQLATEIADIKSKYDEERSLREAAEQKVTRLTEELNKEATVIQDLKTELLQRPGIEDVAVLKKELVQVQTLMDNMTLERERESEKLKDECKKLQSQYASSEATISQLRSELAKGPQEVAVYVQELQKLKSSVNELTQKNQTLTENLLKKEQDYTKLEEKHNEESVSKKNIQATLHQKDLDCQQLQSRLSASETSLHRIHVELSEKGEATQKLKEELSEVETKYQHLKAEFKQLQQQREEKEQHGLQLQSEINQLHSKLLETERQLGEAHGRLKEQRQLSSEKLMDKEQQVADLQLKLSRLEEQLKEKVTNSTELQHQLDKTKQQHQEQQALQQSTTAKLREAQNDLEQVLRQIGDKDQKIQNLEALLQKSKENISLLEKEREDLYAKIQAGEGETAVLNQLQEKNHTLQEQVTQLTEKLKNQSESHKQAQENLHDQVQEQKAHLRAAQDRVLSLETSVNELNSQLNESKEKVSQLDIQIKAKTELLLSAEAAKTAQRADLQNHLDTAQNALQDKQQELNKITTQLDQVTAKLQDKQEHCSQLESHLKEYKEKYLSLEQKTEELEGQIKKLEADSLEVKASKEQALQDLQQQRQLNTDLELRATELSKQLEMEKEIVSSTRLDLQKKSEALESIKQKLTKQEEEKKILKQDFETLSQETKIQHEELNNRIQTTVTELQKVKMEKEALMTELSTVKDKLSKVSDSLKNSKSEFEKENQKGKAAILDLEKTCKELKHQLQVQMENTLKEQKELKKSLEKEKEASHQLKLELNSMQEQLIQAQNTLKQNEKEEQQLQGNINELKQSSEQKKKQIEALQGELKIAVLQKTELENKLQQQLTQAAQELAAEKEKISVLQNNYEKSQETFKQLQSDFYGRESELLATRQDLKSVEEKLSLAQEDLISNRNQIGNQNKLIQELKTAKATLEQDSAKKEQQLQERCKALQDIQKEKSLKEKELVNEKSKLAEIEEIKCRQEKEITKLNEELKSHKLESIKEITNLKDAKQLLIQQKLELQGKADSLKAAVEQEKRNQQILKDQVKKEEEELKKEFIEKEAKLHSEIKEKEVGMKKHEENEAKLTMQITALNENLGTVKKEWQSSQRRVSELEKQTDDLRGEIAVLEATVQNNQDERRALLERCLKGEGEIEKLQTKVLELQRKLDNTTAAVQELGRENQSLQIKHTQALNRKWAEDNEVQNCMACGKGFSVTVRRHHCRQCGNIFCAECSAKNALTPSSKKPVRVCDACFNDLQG

Variant | effect of a mutation on the interaction
MAGRGGAARPNGPAAGNKICQFKLVLLGESAVGKSSLVLRFVKGQFHEYQESTIGAAFLTQTVCLDDTTVKFEIWDTAGQERYHSLAPMYYAGAQAAIVVYDITNTDTFARAKNWVKELQRQASPNIVIALAGNKADLASKRAVEFQEAQAYADDNSLLFMETSAKTAMNVNEIFMAIAKKLPKNEPQNATGAPGRNRGVDLQENNPASRSQCCSN [R92A] | decreasing interaction

Variants of: B2
Settings: with rbns5_human RBSN

Variant | effect of a mutation on the interaction
MAGRGGAARPNGPAAGNKICQFKLVLLGESAVGKSSLVLRFVKGQFHEYQESTIGAAFLTQTVCLDDTTVKFEIWDTAGQERYHSLAPMYYAGAQAAIVVYDITNTDTFARAKNWVKELQRQASPNIVIALAGNKADLASKRAVEFQEAQAYADDNSLLFMETSAKTAMNVNEIFMAIAKKLPKNEPQNATGAPGRNRGVDLQENNPASRSQCCSN [R92A] | decreasing interaction

Variants of: B3
Settings: with rabe1_human RABEP1, Q15276

Variant | effect of a mutation on the interaction
MAGRGGAARPNGPAAGNKICQFKLVLLGESAVGKSSLVLRFVKGQFHEYQESTIGAAFLTQTVCLDDTTVKFEIWDTAGQERYHSLAPMYYAGAQAAIVVYDITNTDTFARAKNWVKELQRQASPNIVIALAGNKADLASKRAVEFQEAQAYADDNSLLFMETSAKTAMNVNEIFMAIAKKLPKNEPQNATGAPGRNRGVDLQENNPASRSQCCSN [R92A] | with no effect
